Laboratory results as given in PMC9482650, “Quantitative fragmentomics allow affinity mapping of interactomes” (Nature Communications, 2022).

How the values were obtained:
Experiment in all cases: holdup assay
Set-up in all cases: key: below the threshold = too weak to quantify, mostly under pKd 3.1 to 4
Settings in all cases: plain residues with an end cap or a label only (N-terminal biotin on a linker: ado-ado)
DFNB31_2, Q9P202 = molecular target: T1, DFNB31_2, Q9P202
T1 sequence (Q9P202 274-371, limits assumed, looked up): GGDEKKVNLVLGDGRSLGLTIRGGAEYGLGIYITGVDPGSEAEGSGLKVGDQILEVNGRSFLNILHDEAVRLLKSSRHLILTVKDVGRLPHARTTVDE

DFNB31_3, Q9P202 = molecular target: T2, DFNB31_3, Q9P202
T2 sequence (Q9P202 811-907, limits assumed, looked up): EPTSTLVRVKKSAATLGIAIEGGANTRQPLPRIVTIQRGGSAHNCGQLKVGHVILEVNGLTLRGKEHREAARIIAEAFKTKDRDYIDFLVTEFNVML

DLG1_1, Q12959 = molecular target: DLG1_1, Q12959
DLG3_3, Q92796 = molecular target: T3, DLG3_3, Q92796
T3 sequence (Q92796 374-475, limits assumed, looked up): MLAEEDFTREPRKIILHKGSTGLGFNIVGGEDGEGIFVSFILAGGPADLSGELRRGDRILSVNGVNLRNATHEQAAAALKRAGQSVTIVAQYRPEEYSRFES

GRIP1_4, Q9Y3R0 = molecular target: T4, GRIP1_4, Q9Y3R0
T4 sequence (Q9Y3R0 467-571, limits assumed, looked up): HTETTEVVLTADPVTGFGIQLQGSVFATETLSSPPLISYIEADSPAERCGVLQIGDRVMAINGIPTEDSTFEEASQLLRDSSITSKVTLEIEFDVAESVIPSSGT

GRIP1_5, Q9Y3R0 = molecular target: T5, GRIP1_5, Q9Y3R0
T5 sequence (Q9Y3R0 568-668, limits assumed, looked up): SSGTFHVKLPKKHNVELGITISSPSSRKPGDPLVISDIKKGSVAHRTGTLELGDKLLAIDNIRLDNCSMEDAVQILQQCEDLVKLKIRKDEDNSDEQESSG

GRIP2_5, Q9C0E4 = molecular target: GRIP2_5, Q9C0E4
GRIP2_5, Q9C0E4, sequence (Q9C0E4 544-642): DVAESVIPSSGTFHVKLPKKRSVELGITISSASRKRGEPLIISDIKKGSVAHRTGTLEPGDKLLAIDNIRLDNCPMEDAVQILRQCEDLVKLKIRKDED

Inadl_2, Q8NI35 = molecular target: Inadl_2, Q8NI35
Inadl_2, Q8NI35, sequence (Q8NI35 238-335): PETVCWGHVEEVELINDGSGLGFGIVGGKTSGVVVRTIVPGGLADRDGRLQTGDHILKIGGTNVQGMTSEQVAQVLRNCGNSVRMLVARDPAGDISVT

LIN7B, Q9HAP6 = molecular target: T6, LIN7B, Q9HAP6
T6 sequence (Q9HAP6 88-185, limits assumed, looked up): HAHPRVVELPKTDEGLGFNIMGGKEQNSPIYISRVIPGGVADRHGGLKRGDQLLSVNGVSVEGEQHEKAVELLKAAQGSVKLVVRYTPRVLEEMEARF

LNX1_3, Q8TBB1 = molecular target: LNX1_3, Q8TBB1
LNX1_3, Q8TBB1, sequence (Q8TBB1 500-596): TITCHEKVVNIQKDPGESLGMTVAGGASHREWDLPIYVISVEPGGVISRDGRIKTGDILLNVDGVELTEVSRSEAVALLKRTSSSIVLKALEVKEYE

LRRC7, Q96NW7 = molecular target: T7, LRRC7, Q96NW7
T7 sequence (Q96NW7 1440-1537, limits assumed, looked up): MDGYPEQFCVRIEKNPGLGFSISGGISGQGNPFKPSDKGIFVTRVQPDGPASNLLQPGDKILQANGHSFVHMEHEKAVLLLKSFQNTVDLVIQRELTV

MAST2, Q6P0Q8 = molecular target: MAST2, Q6P0Q8
MAST2, Q6P0Q8, sequence (Q6P0Q8 1099-1202): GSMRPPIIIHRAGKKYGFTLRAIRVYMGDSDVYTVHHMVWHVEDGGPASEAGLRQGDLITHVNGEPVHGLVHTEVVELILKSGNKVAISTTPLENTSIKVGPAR

MPDZ_12, O75970 = molecular target: T8, MPDZ_12, O75970
T8 sequence (O75970 1857-1958, limits assumed, looked up): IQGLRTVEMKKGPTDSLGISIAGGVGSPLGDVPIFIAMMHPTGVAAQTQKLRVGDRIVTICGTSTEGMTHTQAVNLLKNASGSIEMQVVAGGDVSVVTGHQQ

MPP2, Q14168 = molecular target: T9, MPP2, Q14168
T9 sequence (Q14168 180-250, limits assumed, looked up): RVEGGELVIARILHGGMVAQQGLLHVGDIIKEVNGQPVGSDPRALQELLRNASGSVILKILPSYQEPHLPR

NHERF2_2, Q15599 = molecular target: NHERF2_2, Q15599
NHERF2_2, Q15599, sequence (Q15599 142-238): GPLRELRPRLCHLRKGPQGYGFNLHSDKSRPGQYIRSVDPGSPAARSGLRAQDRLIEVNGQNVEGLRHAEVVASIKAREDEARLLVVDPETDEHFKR

NHERF3_4, Q5T2W1 = molecular target: T10, NHERF3_4, Q5T2W1
T10 sequence (Q5T2W1 373-468, limits assumed, looked up): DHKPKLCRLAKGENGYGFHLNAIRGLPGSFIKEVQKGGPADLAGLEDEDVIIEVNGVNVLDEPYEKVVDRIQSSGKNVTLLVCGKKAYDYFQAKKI

PARD3B_1, Q8TEW8 = molecular target: T11, PARD3B_1, Q8TEW8
T11 sequence (Q8TEW8 196-299, limits assumed, looked up): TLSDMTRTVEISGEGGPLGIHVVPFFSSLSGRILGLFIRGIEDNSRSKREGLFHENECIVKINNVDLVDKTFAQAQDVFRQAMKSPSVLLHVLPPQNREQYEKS

PDZD2_2, O15018 = molecular target: T12, PDZD2_2, O15018
T12 sequence (O15018 329-429, limits assumed, looked up): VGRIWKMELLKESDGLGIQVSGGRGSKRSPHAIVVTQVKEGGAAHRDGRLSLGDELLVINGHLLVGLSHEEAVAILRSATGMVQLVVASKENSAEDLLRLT

PDZRN4_1, Q6ZMN7 = molecular target: PDZRN4_1, Q6ZMN7
PDZRN4_1, Q6ZMN7, sequence (Q6ZMN7 213-318): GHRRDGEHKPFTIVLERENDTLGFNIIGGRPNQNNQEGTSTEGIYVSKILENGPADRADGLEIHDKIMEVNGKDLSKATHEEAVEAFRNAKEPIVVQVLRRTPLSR

RAPGEF6, Q8TEU7 = molecular target: T13, RAPGEF6, Q8TEU7
T13 sequence (Q8TEU7 525-625, limits assumed, looked up): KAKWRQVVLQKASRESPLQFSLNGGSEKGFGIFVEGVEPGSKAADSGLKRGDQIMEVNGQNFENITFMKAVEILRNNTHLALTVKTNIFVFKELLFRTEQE

SCRIB_1, Q14160 = molecular target: SCRIB_1, Q14160
SCRIB_1, Q14160, sequence (Q14160 718-814): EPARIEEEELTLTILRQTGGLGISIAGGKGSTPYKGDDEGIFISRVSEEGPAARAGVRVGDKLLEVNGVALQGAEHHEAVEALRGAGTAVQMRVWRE

SCRIB_3, Q14160 = molecular target: SCRIB_3, Q14160
SCRIB_3, Q14160, sequence (Q14160 999-1103): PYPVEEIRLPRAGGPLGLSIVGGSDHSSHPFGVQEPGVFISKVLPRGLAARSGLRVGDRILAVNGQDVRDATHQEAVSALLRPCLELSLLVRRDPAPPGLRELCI

SNX27, Q96L92 = molecular target: SNX27, Q96L92
TJP2_1, Q9UDY2 = molecular target: TJP2_1, Q9UDY2
TJP2_1, Q9UDY2, sequence (Q9UDY2 24-128): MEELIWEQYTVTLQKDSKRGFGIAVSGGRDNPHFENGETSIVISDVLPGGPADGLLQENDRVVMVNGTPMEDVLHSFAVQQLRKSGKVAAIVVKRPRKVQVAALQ

RELVMRVTTV [MARCHF4, Q9P2E8]
pKd (DFNB31_2, Q9P202): below the threshold | pKd (DFNB31_3, Q9P202): 4.33 | pKd (DLG1_1, Q12959): 5.19 | pKd (DLG3_3, Q92796): 4.63 | pKd (GRIP1_4, Q9Y3R0): below the threshold | pKd (GRIP1_5, Q9Y3R0): below the threshold | pKd (GRIP2_5, Q9C0E4): below the threshold | pKd (Inadl_2, Q8NI35): below the threshold | pKd (LIN7B, Q9HAP6): 4.2 | pKd (LNX1_3, Q8TBB1): below the threshold | pKd (LRRC7, Q96NW7): 3.6 | pKd (MAST2, Q6P0Q8): 5.29 | pKd (MPDZ_12, O75970): below the threshold | pKd (MPP2, Q14168): below the threshold | pKd (NHERF2_2, Q15599): below the threshold | pKd (NHERF3_4, Q5T2W1): 3.58 | pKd (PARD3B_1, Q8TEW8): below the threshold | pKd (PDZD2_2, O15018): 4.46 | pKd (PDZRN4_1, Q6ZMN7): 3.88 | pKd (RAPGEF6, Q8TEU7): below the threshold | pKd (SCRIB_1, Q14160): 4.67 | pKd (SCRIB_3, Q14160): 4.73 | pKd (SNX27, Q96L92): 5.48 | pKd (TJP2_1, Q9UDY2): 3.86

DQPLEKSTKL [AKAP10, O43572]
pKd (DFNB31_2, Q9P202): below the threshold | pKd (DFNB31_3, Q9P202): 3.68 | pKd (DLG1_1, Q12959): below the threshold | pKd (DLG3_3, Q92796): below the threshold | pKd (GRIP1_4, Q9Y3R0): below the threshold | pKd (GRIP1_5, Q9Y3R0): below the threshold | pKd (GRIP2_5, Q9C0E4): below the threshold | pKd (Inadl_2, Q8NI35): below the threshold | pKd (LIN7B, Q9HAP6): below the threshold | pKd (LNX1_3, Q8TBB1): below the threshold | pKd (LRRC7, Q96NW7): below the threshold | pKd (MAST2, Q6P0Q8): 5.41 | pKd (MPDZ_12, O75970): 3.73 | pKd (MPP2, Q14168): below the threshold | pKd (NHERF2_2, Q15599): 5.02 | pKd (NHERF3_4, Q5T2W1): 5.69 | pKd (PARD3B_1, Q8TEW8): 4.15 | pKd (PDZD2_2, O15018): 4.23 | pKd (PDZRN4_1, Q6ZMN7): 3.92 | pKd (RAPGEF6, Q8TEU7): below the threshold | pKd (SCRIB_1, Q14160): 3.72 | pKd (SCRIB_3, Q14160): 4.14 | pKd (SNX27, Q96L92): 5.08 | pKd (TJP2_1, Q9UDY2): below the threshold

LEPAVRSSEL [SH2D3C, Q8N5H7]
pKd (DFNB31_2, Q9P202): below the threshold | pKd (DFNB31_3, Q9P202): below the threshold | pKd (DLG1_1, Q12959): below the threshold | pKd (DLG3_3, Q92796): below the threshold | pKd (GRIP1_4, Q9Y3R0): below the threshold | pKd (GRIP1_5, Q9Y3R0): below the threshold | pKd (GRIP2_5, Q9C0E4): below the threshold | pKd (Inadl_2, Q8NI35): below the threshold | pKd (LIN7B, Q9HAP6): below the threshold | pKd (LNX1_3, Q8TBB1): below the threshold | pKd (LRRC7, Q96NW7): below the threshold | pKd (MAST2, Q6P0Q8): 5.51 | pKd (MPDZ_12, O75970): below the threshold | pKd (MPP2, Q14168): below the threshold | pKd (NHERF2_2, Q15599): 4.29 | pKd (NHERF3_4, Q5T2W1): 4.26 | pKd (PARD3B_1, Q8TEW8): below the threshold | pKd (PDZD2_2, O15018): 3.97 | pKd (PDZRN4_1, Q6ZMN7): 3.9 | pKd (RAPGEF6, Q8TEU7): below the threshold | pKd (SCRIB_1, Q14160): 3.78 | pKd (SCRIB_3, Q14160): 4.39 | pKd (SNX27, Q96L92): 4.68 | pKd (TJP2_1, Q9UDY2): below the threshold
